Article PMC9204161

Molecular target: biotin-ahx-ahx-EPQpYEEIPIYL (biotinylated pTyr peptide derived from the protein MidT)
Test: BLI; Octet RED96 (ForteBio); biotinylated peptides immobilised on a streptavidin biosensor; SH2 variants at 300, 150 and 0 nM

SH2-WT (wild-type Fyn SH2 domain), 6xHis-tagged protein (from UniProt P06241 149-246) (domain or fragment)
Kd: 267 nM
